Measured values from article PMC6028389, “Dedicated surveillance mechanism controls G-quadruplex forming non-coding RNAs in human mitochondria”.

Molecular target: T1, GRSF1 wild type (Homo sapiens, UniProt Q12849 118-480)
T1 sequence: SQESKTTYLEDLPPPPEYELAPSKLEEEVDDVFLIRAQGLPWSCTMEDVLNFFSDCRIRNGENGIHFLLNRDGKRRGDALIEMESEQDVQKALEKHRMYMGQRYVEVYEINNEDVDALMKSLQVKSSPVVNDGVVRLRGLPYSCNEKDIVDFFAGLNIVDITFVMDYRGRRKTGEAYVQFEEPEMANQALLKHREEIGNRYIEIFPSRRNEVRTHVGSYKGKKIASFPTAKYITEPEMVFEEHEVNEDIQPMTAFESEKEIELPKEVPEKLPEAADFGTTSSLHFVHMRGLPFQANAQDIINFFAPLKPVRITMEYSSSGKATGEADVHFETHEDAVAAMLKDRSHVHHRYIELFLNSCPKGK
Assay: EMSA; 75 ug/ml heparin; EMSA: 5 nM RNA, 0-2560 nM protein, 10 mM Tris-HCl pH 8.0, 2.5 mM KCl, 30 mM NaCl, 1 mM EDTA, 0.2 mM DTT, 75 ug/ml heparin, 30 min at 30 C; 7% PAGE
Settings: protein: recombinant; tags: N-terminal 6xHis-SUMO, cleaved by SUMO protease; label: 5'-32P; predicted secondary structure; G4-forming

B1: tRNA-like (structured_RNA)
RNA: GGGCUGUGACUAGUAUGUUGAGUCCUGUAAGUAGGAGAGUGAUAUUUGAUCAGGAGAACGUGGUUACUAGCACCCA
Kd: ~100 nM
